# Data taken from the nanobody polyreactivity screen of Harvey et al. (2022).
# Assay: yeast display, Sf9 membrane polyspecificity reagent, FACS + sequencing; frameworks hold sequencing errors
# Method in brief: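 Nanobodies from a synthetic yeast display library (Saccharomyces cerevisiae BJ5465), induced 36–48 hours with galactose, were stained 1 hour at 4 °C with 10% biotinylated, detergent-solubilized Sf9 membrane reagent, enriched on streptavidin microbeads, then FACS-sorted. Anti-HA (expression) and streptavidin (reagent binding) fluorescence set low and high (top ~1%) gates. Polyreactivity labels come from the gate of origin. Genes were colony-PCR amplified, MiSeq 2 × 250 sequenced and filtered by CDR length.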
row,Sequence,polyreactivity (PSR sort gate)
1,QVQLLESGGGLVQAGGSLRLSFAASGYIFSVNAMGWYRQAPGQERELVATIRTDGTTNYADSVNGRFTISRDNAKNTVYLKMNSLKPEDTAVYYCATDSGWSTYDYWGQGTQVTVSS,high polyreactivity
2,QVQLLESGGGLVQAGGSLRLSFASSGSIFHPYAMGWYRQAPGKERELVAAITSGGSTYYADSVKGLFTISRDNAKNTDLLQMNSLNPEDNAVYYCAKDFDIYYSKYDYWGQGTQVTVSS,low polyreactivity
3,QVQLLESGGGLVQAGGSLRLSGAASGRIFRWYAMGWYRQAPGKEREFVAAITSSGGSTYYADSVMGRFTISRDNAKNTVYLQMNSLKPDDTAGYYCAALVYLGGSYSRGYDWGQGTQVTVSS,high polyreactivity
4,QVQLLESGGGLVQAGGSLRLTCAASGNIFISYAMAWYRQAPGKERELVAAISRSGGSTYYADSVKGRFTISRDNAKNTVYLQMNSLKPEDTAVYYCAAYIGPGRYGSWGQGTQVTVSS,high polyreactivity
5,QVQLLESGGGLVQAGGSLRLTCAASVIIFYPYAMVWYRQAPGKERELVAAISIGGGSTYYADSVKGRFTISRDNAKNTVYLQMNSLKPEDTAVYYCAAGTPYGILGYYYWGQGTQVTVSS,low polyreactivity
6,QVQLLESGGGLVQAGGSLRLTCMASGSILGDRMSWYRQARGKEHELVATIYDGGITYYADSMKGRFTISRDNAKNTVYLQLNSLRPEDTAVYYCGASFEGYRYHVYCGQGTQVTVSS,low polyreactivity
7,QVQLLESGGGLVQAGGSRRLSCAASGSTFYGYAMGWYRQAPGKEREFVAAITTSGGSTYYADSVKGRFTISRDNAKNTVYLQMNSLKPEDTAVYYCAADAPSWYDRQYDYWGQGTQVTVSS,low polyreactivity
8,QVQLLESGGGLVQAGGTLRLSCAASGSIFFRNAMGWYRQAPGKERELVAAITWNGGSTYYADSVKGRFTISRDNAKNTVYLQMNSLKPDDTAVYYCNKYYYYRDSGYWGQGTQVTVSS,high polyreactivity
9,QVQLLESGGGLVQAGGTLRLSCAASGSTFRYNAMGWYRQAPGKERELVAAITSGGRTNYADSVKGRFTISRDNAKYTFYLQMNSLKPEDTGVYYCAARRYCRNWHNVYWGQGTQVTVSS,high polyreactivity
10,QVQLLESGGGLVQAGRSLRLSCSASGRTLVYNAMGWYRQAPGKERELVAGITNGGSTNYADSVKGRFTISRDTAKNTVYLQMNSLKPEDTAVYYCAADSRVYPYYFGDFGYWGQGTQVTVSS,low polyreactivity
11,QVQLLESGGGLVQAGVSLRLSCSASGFTFGRYAMGCYRQAHGKERELVAGITWSGGSTSYADSVKGRFTISRDNAKNTVYLQMNSLKPEDTAVYYCATRARYTRVHGRRYAYDYWGQGTQVTVSS,high polyreactivity
12,QVQLLESGGGLVQARGSLRLICAASGRIFTDNAMGWYIQAPGKERELVATISKRGGRTYYADSVKGRFTISRDNAKNTVYLQMNSLKPEDTAVYYCNARPYWIDGSGLFPYDYWGQGTQVTVSS,high polyreactivity
13,QVQLLESGGGLVQEGGSLRLSCAASGSIFEWYVMGWYRQAPGKERELVDTITSDCSSNYADSVKGRFTISRDNAKNTVYLQMNSLKPEDSAVYYCARDWRWDAWTRRGNDDGYWGQGTQVTVSS,low polyreactivity
14,QVQLLESGGGLVQSGGILRLSCAASGRNFGRYAMGLYRQAPGKERELLATITWRGGITYYADSVKGRFTISRDNAMNTVSLQMNSLKPEDSAVYYCAAGYGRIPYVYWGKGTQVTVSS,high polyreactivity
15,QVQLLESGGGLVQSGGSLRLSCAASGLTFGSNAMGWYRQATGKEREMVAAISYGGGSTSYADSVKGRFTISRDNAKNTVYLQMNSLKPEDTSVYYCAVVWLCAYSRTNYYYWGQGTQVTVSS,low polyreactivity
16,QVQLLESGGGLVQVGGSLRLSCAASGTIFIYGFLGWNRQAPGKERELVASINLGGITNYADSEKGRFTISRDNAINTGFLQMISLKPEDTAVYYCAAYVVTCQNYGYWGHGTQVTVSS,low polyreactivity
17,QVQLLESGGGVVQAGGSLRLSCAASGFTFLYNTMGGYRQAPGKVRELVAAISIRGGSTYYADSVKGRFTISRDNAKNTVYLQMNSLKPEDNAVYYCAARTPTPASRSRVYYWGHGTQVTVSS,high polyreactivity
18,QVQLLESGRGLDQAGGSLRLSCAASGGTYKTNPMGMYRQAPGKEMELVAAITGSGTSTYYADSVKGRFTISRDYAKNTVYLQMNSLNPEDTAVYYCAADKLYHPGIGDDYWGQGTQETVSS,low polyreactivity
19,QVQLLESVGGLVQAGGRLRLTCDATGSIFRYYAMGWYRQEPGKERELVATISSGGRTYYADSVKGRFTISRDNAKNTVYLQMNSLKPEDTAVYYCAKVGWSRRYYYWGQGTQVTVSS,high polyreactivity
20,QVQLLESWGGLVQAGGSLRLSCAASGFIFRGYAMGWYRQAPGKDRELVAAISTGGGRTYYADSVKGRFTISRDNAKNTVYLQMNSLKPDDTAVYYCIRRSYTQVLMDYWGQGTQVTVSS,high polyreactivity
21,QVQLLETGGGLVQAGGSLRLSCAPSGSTFYYYAMGWYRQAPGKEWELVAAISWSGVSTYYADSVKGRFTISRDNAKTTVYLQMNSLKPEDNAVYYCNADSYTLYGRYDYWGQGTQVTVSS,low polyreactivity
22,QVQLLETGRGLVQAGGSLRLSCAPSGITFRYYAMGWYRQAPGQERELVAAITRSGGSTYYADSVKGRFTLSRYNAKNTVYLQMNSLKPEDTAVYYCAAQPVSRHTGTFYRSNGYDYWGQVTQVTVSS,high polyreactivity

row,Sequence,polyreactivity (PSR sort gate)
1,QVQLLQSGGGLVQAGGSLRLSCAASGFIFLGYAMGWYRQAPGNERELVAAISENSGTTSYADSVKGRFTISRDNAKNTVYLQMNSLKPEDTAVYYCAADSIGNYLLYDYWGQGTQVTVSS,low polyreactivity
2,QVQLPESGGGLLQAGGGLRLSCAASGSITSTGYMGWYRPAPGKEREPVAAIAAGTTTYYADSVKARFTISRDNAKNTVYLQMNCLRPEDTAVYYCAVFTDNRLAFLYWGQGTQVTVSS,low polyreactivity
3,QVQLQERAAWCRRAGSLRLSFAASGNISDYYFMGWYRQAPGKEREIFAAIAPGSNTFFADSVKGRFTISRDNATNTVYLQMNSLNPEDTAVYYCARQGTIYSYDIVYPRLDYWGQGTQVTVSS,low polyreactivity
4,QVQLQERGGGLVQAGGSLRQSCAASGTISDRAGMGWYRQAPAKNAIVATIDRGTNTNYADSVKGRFTISRDNAKNTVYLQMNSLKPEDTAVYNCAAVGRYNIYLDYWGQGTQVTVSS,low polyreactivity
5,QVQLQESDGGLVQAGGSLRLSCAASGSISPQYYMGWYRQEPGKEREFVAISKGTTTYYADSVKGRLTISRVNAKNTVYLQMNSLKPEDTAVYCCAAGRWLQKVHAYWDQGTQVTVSS,low polyreactivity
6,QVQLQESDGGLVQAGGSLRLSCAASGSISPQYYMGWYRQEPGKEREYVAISKGTTTYYADSVKGRLTISRVNAKNTVYLQMNRLKPEDTAVYCCAAGRWLQKVHAYWDQGTQVTVSS,low polyreactivity
7,QVQLQESGAGLEQAGGSLRMSCAASGYSSDIGTMGWYRQAPGKEREFVATIVVGSTTNYADSVKGRFTISRDNAKNTVYLQPESGRYRGVLLRGWLLAVGKFTYWGQGTQETVSS,low polyreactivity
8,QVQLQESGAGLVQAGGSLRLTCAASGSIFLFYTMGWYRQAPVKEREFVAGITLGTTTYNADSVKGRFTISRDNVKNTVYLQMNSLKPEDTAVYYCAVAVGHYTEFWYWGQGTQVTMSS,high polyreactivity
9,QVQLQESGAGPVLAGGSLRLSCAASGTIYVRLDMGWYRQAPGKEREFVATIGSGSSTYYADSVKGSFTISRDNVKNTVYLQMNSLNPEVTAVYYCAVSAAEQSRHYYWAQGTQVTVSS,low polyreactivity
10,QVQLQESGCGLVQAGGCLSCTASGTIFGQGDMGWYRQAPGKERELVATINDGASTYYADSVKGRFTISRDKAKNTVYLQMNSLKPEDTAVYYCAAVIRPRYYQVRPRYDYWGQGTQVTVSS,low polyreactivity
11,QVQLQESGCGLVQAGGSLRLSCAASGNIFEADIMGWYHQAQGKERELVASITDGGSTNYADSVKGRFTINRDNAKNNVYLQMNSLKPEDTAVYSCAAIAYPDIPTYFDYDSDYFYWGQGTQVTVSS,high polyreactivity
12,QVQLQESGDGLLQAVGSLRLSCAASGYISGYYYMGWYRQAPGKERELVAGIDAFGSSTNYADCVKGRFTISRDNGKNTVYLQMNSLKPEDTAVYYCAARPDGDRLFSYWGQGTQVTVSS,low polyreactivity
13,QVQLQESGDGLVQAVGSLRLSCAASGYSSGYYYMGWYRQAPGKERELVAGIDAFGISTNYADCVKGRFTISRDNAKNTVYLQMTSLKPEDTAVYYCAARPDGDRLFSYWGQGTQVTVSI,low polyreactivity
14,QVQLQESGGGLAQAVGSLRLSCAASGNIFDPDIMGSYRQAPAKERELVGSITHGGSTNYVDSVKGRFTISRDNATNTVHLQMNRLKPVDTGVYYCAAIGYPDIPSYFDYDSDFFNWGHGTQVTVSS,high polyreactivity
15,QVQLQESGGGLEKACGSLRLSCAASVNISPRDAMCWYRQAPGEERDLVASNAYSAITYYADGVKGRYTISRDNAKNTVYLHMNSLKPEDTEVYYCAVYQFPYPVFPAYCGQGTQVTVSS,low polyreactivity
16,QVQLQESGGGLEQAGGSLRMSCAASGTIFSEANMGWYRQAPGKERELVATIGQGSTTNYADSVKGRFTISRDNAKNTVYLQMNSLKPEETPVYYCAVVTVDPVGFVYWGQGTQVTVSS,low polyreactivity
17,QVQLQESGGGLMQAGGSQRLSCAASGSISSYSDMGWYRQAPGKEREFVAGIGYGTTTNYADSVKGRFTTSRDNAKNTVYLQMISMKPEDTAVYYCAAYQGNGYEFYYWGQGTQVTVRS,low polyreactivity
18,QVQLQESGGGLMQAGGSQRLSCAASGSISYYSDRGWYRQAPGKEREFVAGIGYGTTTNYADSVKGRFTTSRDNAKNTVYLQMICMKPEDTAVYYCAAYQGNGYEFYYWGQGTQVTVRS,low polyreactivity
19,QVQLQESGGGLVHAAGILRLSCAACGNIFPSAVMGWYRQALGKEREFVATLNSGSNTYYADSVKGRFTIRRDNAKNTVYLQMNSLKLEDTGVYYCAAYFNLPAWHTYWGQGTQVTVSS,low polyreactivity
20,QVQLQESGGGLVHACGSLRPSCAASGSISDSWRMSWYRQAPGTEREFVAGITWGGTTNYADSVKGRFTISRDNAKNTVYLQMNSLKPEDTAVYYCNARQRTYYRTHRIRHKGNGYWGQGTQVTVSS,low polyreactivity
21,QVQLQESGGGLVHAGGSLRLSCAASGTISFINMMGWNRQAPGRERELVASINFGANTNYADSVKGRFTISRDNAKNTVYVQMNSLKPEDTAVYYCAVYDFDAYTLDYWGQGTLVTVSS,high polyreactivity
